Some results are limits rather than exact numbers.

In test [1] the target is p53-like peptide F19A, displayed on E. coli. Description: flow cytometry on cells. In general terms: Flow cytometry measures light scatter and fluorescence of single cells or particles in a stream.
For test [2], the target named is p53-like peptide W23A, displayed on E. coli. Description: flow cytometry on cells.

“Mdm2-GST (from UniProt Q00987 1-491) (natural protein)”: the relative Kd (against the wild type p53-like peptide) in test [1] and in test [2] was greater than 10000 each time.

The values above are taken from publication PMC10773984.
